Test results reported in paper PMC7188823, “The BRCA2-MEILB2-BRME1 complex governs meiotic recombination and impairs the mitotic BRCA2-RAD51 function in cancer cells” (Nature Communications, 2020).

B2: MEILB2 C-terminus (a.a. 87–338) (domain or fragment, mouse, UniProt Q9D4G2 87-338, looked up)
chain: ARLETAQADSGREKKEKLALRQQLNEAKQQLLQQAEYCTQMGAVTCTLLWGVSSSEEVVKTILGGDKALKFFNITGQTMESFVKSLDGDVKEVDSDENQFVFALAGIVTNVAAIACGREFLVNSSRVLLDTMLQLLGDLKPGQCTKLKVLMLMSLYNVSINSKGLKYITESPGFIPLLWWLLSDPDAEVCLHTLRLIQSVVLEPDVFSKVASELQSSLPLQRILAMSKSRNSHLQSAAQELLEDLRALDCNV
notes: MEILB2/HSF2BP, mouse, a.a; 87-338 (27.9 kDa in theory); pET-Duet for the co-expression, pSmt3 for the protein alone; also called mMEILB2 a.a; 87–338; source: E. coli BL21(DE3), purified (Ni-NTA, Ulp1 cleavage, cation exchange, size-exclusion chromatography); expressed alone or co-expressed with BRCA2 (a.a. 2219–2285); not shown: 10x His-Smt3, N-terminal, cleaved

What was measured:
[1] = molecular target: MEILB2 α1 (a.a. 18–55; tag removed) (mouse) (UniProt Q9D4G2); experiment: SEC-MALS; Superdex 200 Increase 10/300 GL; 20 mM Tris (pH 8.0), 150 mM KCl, 2 mM DTT; samples at >1 mg/ml; MEILB2 fragments alone or as purified complexes with BRME1-MBD
[2] = molecular target: MEILB2 α1+2 (tag removed) (mouse); experiment: as above
[3] = molecular target: the molecule itself; experiment: as above
[4] = molecular target: the molecule itself; experiment: SEC-MALS; individual proteins; 500 µg on Superdex 200 10/300 at 0.5 ml/min
[5] = molecular target: the molecule itself; experiment: SEC-MALS; purified MEILB2 (a.a. 87–338)-BRCA2 (a.a. 2219–2285) heterocomplex; 500 µg on Superdex 200 10/300 at 0.5 ml/min
[6] = molecular target: T1, MEILB2 C-terminus (a.a. 87–338) (Mus musculus (Mouse), UniProt Q9D4G2); experiment: co-expression co-purification, SEC and SEC-MALS
T1 chain: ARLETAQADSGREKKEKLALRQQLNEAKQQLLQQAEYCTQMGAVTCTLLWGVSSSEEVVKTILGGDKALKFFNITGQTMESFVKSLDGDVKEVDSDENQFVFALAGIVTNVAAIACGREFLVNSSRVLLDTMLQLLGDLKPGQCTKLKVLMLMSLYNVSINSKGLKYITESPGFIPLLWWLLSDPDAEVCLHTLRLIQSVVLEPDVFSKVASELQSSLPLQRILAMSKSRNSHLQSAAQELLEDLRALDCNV

[7] = molecular target: B2; experiment: SEC-MALS; purified MEILB2 (a.a. 87–338)-BRCA2 (a.a. 2219–2285) heterocomplex; 500 µg on Superdex 200 10/300 at 0.5 ml/min; conditions: both partners purified

## BRME1-MBD (a.a. 519–600), recombinant, His-tagged (from UniProt Q6DIA7 519-600) (domain or fragment)
[1]
  stoichiometry N (BRME1-MBD per MEILB2 chain (2:2)): 1
[2]
  stoichiometry N (BRME1-MBD per MEILB2 chain (2:2)): 1

B1: MEILB2 α1 (a.a. 18–55; tag removed) (domain or fragment, mouse, UniProt Q9D4G2 18-55, looked up)
chain: MESKEEFVKVRKKDLERLTTEVMQIRDFLPRILNGELL
notes: MEILB2/HSF2BP, mouse, α1, a.a; 18-55; source: E. coli BL21 (DE3), purified (Ni-NTA, amylose, ion exchange, TEV cleavage, size-exclusion chromatography); not shown: MBP, N-terminal, cleaved
[3]
  stoichiometry N: 4 chains in the oligomer

## B2
[4]
  stoichiometry N: 2 chains in the oligomer
[5]
  stoichiometry N: 4 chains in the oligomer

B3: BRCA2-MBD fragment (a.a. 2219–2285) (domain or fragment, mouse, UniProt P97929 2219-2285, looked up)
chain: KRGGVTVDAVGQPPIKRSLLNEFDRIIESKGKSLTPSKSTPDGTVKDRSLFTHHMSLEPVTCGPFCS
notes: BRCA2, mouse, a.a; 2219-2285 (7.4 kDa in theory by the text); the His-Smt3 tag holds for the protein expressed alone (pSmt3); in the co-expression (pET-Duet) BRCA2 was untagged; also called mBRCA2 a.a; 2219–2285; source: E. coli BL21(DE3), purified (Ni-NTA, Ulp1 cleavage, size-exclusion chromatography, cation exchange); expressed alone or co-expressed untagged with His-Smt3-MEILB2 (a.a. 87–338)
[6]
  binding result: binds
[7]
  stoichiometry N: ~0.5 BRCA2 per MEILB2 chain (4:2 MEILB2:BRCA2)
